“Also recorded” adds a separate entry of the source.
Key:
[1] = target: T1, endogenous PTP1B under reducing conditions (Homo sapiens, UniProt P18031); test: Intrabody interaction in 293T cells under reducing condition (NAC, TCEP) (Ni-NTA pull down / immunoprecipitation); type: cell-based; settings: 20 mM NAC, lysis buffer with 2 mM TCEP, FIGS. 11, 12
T1 construct: endogenous in cells; host or cells: 293T cells (transfected only with the scFv intrabody)
T1 sequence (P18031 1-435): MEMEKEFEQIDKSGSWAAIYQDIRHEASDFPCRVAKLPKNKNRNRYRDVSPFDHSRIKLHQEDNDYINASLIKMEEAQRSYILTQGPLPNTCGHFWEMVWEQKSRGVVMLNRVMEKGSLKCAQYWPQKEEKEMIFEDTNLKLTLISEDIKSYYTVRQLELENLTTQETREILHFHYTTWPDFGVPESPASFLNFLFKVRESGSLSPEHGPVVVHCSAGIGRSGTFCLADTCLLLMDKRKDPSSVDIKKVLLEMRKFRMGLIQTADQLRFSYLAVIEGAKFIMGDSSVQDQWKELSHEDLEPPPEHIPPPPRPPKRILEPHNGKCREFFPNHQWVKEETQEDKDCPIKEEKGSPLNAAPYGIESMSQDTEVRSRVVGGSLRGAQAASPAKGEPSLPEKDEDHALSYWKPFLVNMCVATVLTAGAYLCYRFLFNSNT
Experimental: One of the positive candidate scFvs (scFv45) was cloned in pcDNA3.2/V5-GW/D-TOPO expression vector and transiently expressed in mammalian cells as stable intracellular antibody (aka intrabody) (FIG. 10). To detect PTP1B-OX and scFv45 interaction in mammalian cells, scFv45 was overexpressed in 293T cells as described herein (See Example 4) and 48 hours post transfection the cells were serum-starved for 16 hours in growth medium (DMEM, low glucose) without serum (FBS), then incubated with 1 mM H2O2 (in growth medium without serum) for 5 minutes at 37° C. or treated with 20 mM NAC (in growth medium without serum) for 1 hour at 37° C. Cells treated with H2O2 were washed twice with cold (4° C.) PBS and lysed in lysis buffer (25 mM HEPES, pH 7.4, 150 mM NaCl, 0.25% Deoxychloate, 1% TritonX-100, 25 mM NaF, 10 mM MgCl2, 1 mM EDTA, 10% Glycerol, 0.5 mM PMSF, 10 mM Benzamidine, protease inhibitor cocktail). Cells treated with NAC were lysed with lysis buffer containing 2 mM TCEP to ensure a post-lysis reducing environment. Interaction between PTP1B and intrabody45 were tested by pulling down the protein complex from 1 mg of total cell lysate with Ni-NTA agarose or by immunoprecipitating PTP with anti-PTP1B (FG6). For the pull down experiment, Ni-NTA agarose beads were incubated with the lysates (both oxidized and reduced) at 4° C. Protein complex bound to the Ni-NTA agarose beads was pulled down and washed three times; first with lysis buffer containing 20 mM imidazole followed by two more washes with wash buffer (PBS, pH 7.4, 20 mM imidazole, 0.05% BSA, 0.05% Tween-20 and protease inhibitors). Applicant used 20 mM imidazole in the wash buffer to reduce the non-specific binding of proteins with the Ni-NTA agarose beads. The complex was eluted with wash buffer containing 500 mM imidazole with gentle shaking at 4° C. and the eluate was mixed with SDS sample buffer with DTT. For the immunoprecipitation experiments, 1 mg of total cell lystates (both oxidized and reduced) was incubated with anti-PTP1B antibody (FG6) at 4° C. The interacting protein complex was immunoprecipitated after incubating the lysate-antibody mixture with protein A/G Sepharose at 4° C. After immunoprecipitation, Sepharose beads were washed three times; first with lysis buffer followed by two more washes with wash buffer (PBS, pH 7.4, 0.05% BSA, 0.05% Tween-20 and protease inhibitors). The Sepharose beads were then heated at 90° C. in 2×SDS sample buffer with DTT. Proteins from the pulled down or immunoprecipitated complex were separated by SDS-PAGE. PTP was detected with anti-PTP1B antibody (FG6) and the intrabodies were detected with anti-HA (3F10)-HRP antibody [anti-HA (3F10)-HRP, Roche] by immunoblotting.
In the initial in vitro phosphatase screening assay using reversibly oxidized (with H2O2) recombinant PTP1B, Applicant found four different PTP1B-OX specific scFvs (scFv45, scFv57, scFv64 and scFv106) from the initial pool of 12 different scFvs. […] Applicant has also shown that scFv45, expressed as an intrabody in mammalian cells, can bind to endogenous PTP1B-OX but not endogenous PTP under reducing conditions. Further assessment was carried out to identify additional PTP1B-OX-specific intrabodies. Additional scFvs have been subcloned in pcDNA3.2/V5-GW/D-TOPO mammalian expression vector (FIG. 10) from their respective phagemid constructs. […]

[2] = system: tyrosine phosphorylation of insulin receptor β (IRβ) and insulin receptor substrate-1 (IRS-1) in 293T cells; test: Insulin signaling in 293T cells expressing intrabody: tyrosine phosphorylation of IRβ and IRS-1; type: cell-based
Source text: In order to validate this approach further, Applicant tested the effects of expressing one of these (scFv45) as a single chain antibody fragment “intrabody” to PTP1B, using 293T cells as a convenient expression system. This intrabody was expressed transiently and then tested for effects on insulin signaling, focusing initially on the tyrosine phosphorylation status of the β-subunit of the insulin receptor and IRS-1 (FIG. 2). Initial indications are that for both substrates expression of the intrabody had no impact on the basal level of tyrosyl phosphorylation, but it enhanced and extended the time course of insulin-induced phosphorylation, consistent with our proposed mechanism of action.
Intrabody scFv45 was transfected in 293T cells, serum starved and insulin stimulated to investigate the physiological relevance of this intrabody expression in mammalian cells in the context of PTP1B mediated regulation of insulin signaling (or insulin signaling mediated redox regulation of PTP1B activity). Insulin stimulated 293T cells with or without the intrabody were harvested in RIPA buffer (25 mM HEPES, pH 7.5, 150 mM NaCl, 0.25% Deoxychloate, 10% Glycerol, 25 mM NaF, 10 mM MgCl2, 1 mM EDTA, 1% TritonX-100, 0.5 mM PMSF, 10 mM Benzamidine, protease inhibitor cocktail, 1 mM sodium vanadate) and the cell lysates were examined for total tyrosine phosphosphorylation pattern using phospho-tyrosine specific antibodies (FIGS. 3 and 4).

B1: scFv45: conformation-sensor scFv binding PTP1B-OX, SEQ ID NO: 26 and 78; expressed as intrabody (protein)
scFv: MKKTAIAIAVALAGFATVAQAALTQPSSVSANPGGTVKITCSGSSSAYGYGWYQQKSPGSAPVTVIYNNNKRPSNIPSRFSGSKSGSTGTLTITGVQAEDEAVYFCGSEDSSTDAIFGAGTTLTVLGQSSRSSTVTLDESGGGLQAPGGALSLVCKASGFTFSSYDMGWIRQAPGKGLEYVAGITDNGRYASYGSAVDGRATISRDNGQSSVRLQLNNLRAEDTGTYYCARDDGSGWTGNSIDAWGHGTEVIVSSTSGQAGQHHHHHHGAYPYDVPDYAS
[1]
  binding of intrabody to endogenous PTP1B under reducing conditions: not in the cells that were under reducing condition; also recorded: not in the presence of NAC and TCEP
[2]; 293T cells expressing intrabody, no insulin
  basal level of tyrosyl phosphorylation of insulin receptor β-subunit and IRS-1: no impact
[2]; 293T cells overexpressing intrabody, insulin stimulated, FIG. 3
  tyrosine phosphorylation of insulin receptor β (IRβ): increased and prolonged tyrosine phosphorylation
[2]; 293T cells overexpressing intrabody, insulin stimulated, FIG. 4
  tyrosine phosphorylation of insulin receptor substrate-1 (IRS-1): increased and prolonged tyrosine phosphorylation
